Reference: patent US20210077575A1 (CEDARS SINAI MEDICAL CENTER, published 2021)

Target: T1, HER3 (human, UniProt P21860 20-1342)
T1 construct: whole, on cells; Endogenous receptor on tumour cell lines; also called ErbB3; Human ErbB3/HER3
Experiment: confocal immunofluorescence, SK-MEL-2 cells treated with HerPBK10-GFPD10 nanoparticles, 0 minutes
Protocol: The cells were counterstained using DAPI to stain the nucleus and rhodamine phalloidin to stain actin.
Images were taken after 0, 15, 30, 60, and 120 minutes using confocal microscopy.

T1 sequence (P21860 20-1342): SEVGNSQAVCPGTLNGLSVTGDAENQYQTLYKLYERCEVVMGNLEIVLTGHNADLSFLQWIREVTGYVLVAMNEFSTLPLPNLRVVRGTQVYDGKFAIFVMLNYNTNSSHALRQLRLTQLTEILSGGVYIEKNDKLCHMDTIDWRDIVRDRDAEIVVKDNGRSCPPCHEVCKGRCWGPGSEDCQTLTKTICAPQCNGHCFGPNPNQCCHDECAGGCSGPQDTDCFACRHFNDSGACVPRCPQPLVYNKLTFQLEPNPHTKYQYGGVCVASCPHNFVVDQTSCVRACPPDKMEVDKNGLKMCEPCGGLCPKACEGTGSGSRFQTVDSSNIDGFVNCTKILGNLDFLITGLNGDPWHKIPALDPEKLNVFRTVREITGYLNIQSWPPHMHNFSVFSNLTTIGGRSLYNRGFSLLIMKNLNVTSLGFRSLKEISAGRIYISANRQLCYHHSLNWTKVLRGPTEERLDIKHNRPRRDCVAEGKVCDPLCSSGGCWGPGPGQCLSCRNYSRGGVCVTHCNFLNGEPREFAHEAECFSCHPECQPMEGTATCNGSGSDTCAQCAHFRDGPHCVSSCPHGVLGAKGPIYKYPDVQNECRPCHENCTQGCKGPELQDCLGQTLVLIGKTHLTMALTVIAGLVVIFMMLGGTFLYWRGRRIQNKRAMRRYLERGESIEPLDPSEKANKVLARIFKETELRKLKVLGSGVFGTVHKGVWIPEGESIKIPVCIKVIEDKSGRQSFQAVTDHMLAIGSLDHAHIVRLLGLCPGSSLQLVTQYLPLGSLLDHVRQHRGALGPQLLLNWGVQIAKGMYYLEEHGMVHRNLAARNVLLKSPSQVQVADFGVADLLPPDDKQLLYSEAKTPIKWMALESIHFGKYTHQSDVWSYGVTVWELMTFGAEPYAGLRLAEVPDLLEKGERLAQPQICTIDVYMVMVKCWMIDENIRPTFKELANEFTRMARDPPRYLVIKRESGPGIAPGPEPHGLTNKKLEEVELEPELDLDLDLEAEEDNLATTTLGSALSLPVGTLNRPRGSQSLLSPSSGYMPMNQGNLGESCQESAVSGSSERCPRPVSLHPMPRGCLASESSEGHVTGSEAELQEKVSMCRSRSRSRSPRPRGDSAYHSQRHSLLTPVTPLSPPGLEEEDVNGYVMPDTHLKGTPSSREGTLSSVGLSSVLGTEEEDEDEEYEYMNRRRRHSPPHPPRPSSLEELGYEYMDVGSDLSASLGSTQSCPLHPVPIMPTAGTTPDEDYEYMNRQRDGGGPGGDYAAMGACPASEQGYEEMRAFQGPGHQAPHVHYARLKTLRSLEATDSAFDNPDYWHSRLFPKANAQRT

B1: HerPBK10 carrier polypeptide comprising a Her cell-targeting segment, a penton base (PB) segment, a decalysine (K10) binding segment, and an N-terminal … (other)
chain: MRGSHHHHHHGMASMTGGQQMGRDLYDDDDKDRWGSELLPPQLKEMKSQESAAGSKLVLRCETSSEYSSLRFKWFKNGNELNRKNKPQNIKIQKKPGKSELRINKASLADSGEYMCKVISKLGNDSASANIAIVESNEIITGMPASTEGAYVSSESPIRISVSTEGANTSSSTSTSTTGTSHLVKCAEKEKTFCVNGGECFMVKDLSNPSRYLCKCQPGFTGARCTENVPMKVQNQEKAEELYGGSGGSRSMRRAAMYEEGPPPSYESVVSAAPVAAALGSPFDAPLDPPFVPPRYLRPTGGRNSIRYSELAPLFDTTRVYLVDNKSTDVASLNYQNDHSNFLTTVIQNNDYSPGEASTQTINLDDRSHWGGDLKTILHTNMPNVNEFMFTNKFKARVMVSRLPTKDNQVELKYEWVEFTLPEGNYSETMTIDLMNNAIVEHYLKVGRQNGVLESDIGVKFDTRNFRLGFDPVTGLVMPGVYTNEAFHPDIILLPGCGVDFTHSRLSNLLGIRKRQPFQEGFRITYDDLEGGNIPALLDVDAYQASLKDDTEQGGGGAGGSNSSGSGAEENSNAAAAAMQPVEDMNDHAIRGDTFATRAEEKRAEAEAAAEAAAPAAQPEVEKPQKKPVIKPLTEDSKKRSYNLISNDSTFTQYRSWYLAYNYGDPQTGIRSWTLLCTPDVTCGSEQVYWSLPDMMQDPVTFRSTRQISNFPVVGAELLPVHSKSFYNDQAVYSQLIRQFTSLTHVFNRFPENQILARPPAPTITTVSENVPALTDHGTLPLRNSIGGVQRVTITDARRRTCPYVYKALGIVSPRVLSSRTFKKKKKKKKKK
B1: binds.
